Results: the supplement of paper PMC10724198
± gives the standard deviation of the averaged measurements.

test system: Saccharomyces cerevisiae; assay: protein stability index of tFT-peptide fusion (C-terminal peptide) (PSI (0-1 scale)); higher = more stable (slower turnover); settings: genetic background: wild type; temperature: 30 C
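Also: PSI is a weighted mean of sequencing reads over stability bins, variants kept only with over 10 reads, mCherry proximal and sfGFP distal, peptide attached via GGGS linker.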

Sequence | protein stability index
KNGQGQRKIPGK | 0.721 ± 0.023
SPSCSLLCPLPR | 0.72 ± 0.028
TGPGCWVCCVGE | 0.648 ± 0.048
PFGDRSGLCVSV | 0.653 ± 0.017
RVGLCGSSLGVI | 0.742 ± 0.078
SLGLHADLLSRT | 0.672 ± 0.064
QHVDRFVGVNRE | 0.715 ± 0.051
CFFFFIFSLFGL | 0.515 ± 0.02
NDQASVLSFRSV | 0.664 ± 0.063
GVVVIVKYKMGV | 0.579 ± 0.031
WVGVGMRTNGLG | 0.679 ± 0.072
PPAPPHHPPPSS | 0.679 ± 0.036
PPRSPPLPPGLP | 0.558 ± 0.039
YARLAWDFRRSP | 0.737 ± 0.019
LIVFSFLSCPVP | 0.5234 ± 0.0013
VVGHGLAGCKVG | 0.668 ± 0.037
LPRELFSQQRFL | 0.713 ± 0.0097
LPLSSLLRPRHS | 0.684 ± 0.056
ILLSVAMNLRKH | 0.571 ± 0.037
RNIRGDYKGRRL | 0.6455 ± 0.0019
VWGVFGGCWCGV | 0.693 ± 0.021
MPFTSDAAALAP | 0.689 ± 0.03
MPPRVLSALAPL | 0.642 ± 0.0023
SRTLLRVSHLSL | 0.699 ± 0.02
LFHHLAPRPAPP | 0.698 ± 0.051
AWRGFVALSFSR | 0.695 ± 0.049

Sequence | protein stability index
YGNTQFLTQTWY | 0.705 ± 0.021
YTHIRGVLFGVR | 0.704 ± 0.034
KFNNIQNWRLAY | 0.787 ± 0.098
RWFILCRSLPTG | 0.613 ± 0.071
SHRRSMTNNKAK | 0.705 ± 0.01
PPPQSFLPRPPH | 0.713 ± 0.0062
CDWRSMEWRGCW | 0.693 ± 0.0072
PLCCHRSTGCTL | 0.676 ± 0.022
QILPVLSKPTWI | 0.736 ± 0.057
PPEPVRHTSGLS | 0.807 ± 0.059
KKKNRKQKHKQL | 0.565 ± 0.014
FRICSLTLSLSI | 0.5517 ± 0.0048
RTQYEVGVGTGG | 0.692 ± 0.021
GVPRNSCHYPYG | 0.6462 ± 0.0049
PSKTTALTGPDP | 0.737 ± 0.008
NISIFGSRLRVV | 0.533 ± 0.034
PSELLPQLPSRW | 0.702 ± 0.019
PPFTPLPPSVPP | 0.686 ± 0.03
RPSLEKQETEKT | 0.696 ± 0.056
NTQLPASPVSQG | 0.628 ± 0.027
ETLEKYGDPMRD | 0.624 ± 0.0088
NTSVSGTGVSSK | 0.762 ± 0.12
THPTCPLHLLPT | 0.699 ± 0.039
GGFGVARVLYGL | 0.712 ± 0.035
RVWERGRGGDGC | 0.679 ± 0.017
KTRQSNAPRRTF | 0.707 ± 0.0091

Sequence | protein stability index
SLYVRRCKEASK | 0.6894 ± 0.0023
GGALLGGGAMGL | 0.643 ± 0.037
QEREAGVTALIR | 0.707 ± 0.04
PRLAPLTLLPPS | 0.7051 ± 0.0027
WPHGHVNTHRIG | 0.737 ± 0.038
TPRYALVRHHPR | 0.695 ± 0.098
QGELHRDVYIVI | 0.6793 ± 0.0013
KIEHEGIKKGGT | 0.807 ± 0.14
SVGGLAALLCGL | 0.682 ± 0.037
LMVCQKPYCMRI | 0.678 ± 0.0014
GGGGGGVSLGGR | 0.696 ± 0.072
IYTRVWPQSWLP | 0.696 ± 0.038
VCVDLFGLRASA | 0.631 ± 0.044
KMGRTEIWTIHL | 0.685 ± 0.053
LPPTLPPPPPAL | 0.724 ± 0.032
HPGPPPPPAAAA | 0.679 ± 0.007
YFVSCACSSYFV | 0.601 ± 0.02
QRPFRRRRVLCP | 0.561 ± 0.054
EKKNGKEKEKER | 0.6647 ± 0.0062
GFALVVGNLISF | 0.636 ± 0.021
SPSTRWPTVQTR | 0.662 ± 0.0098
RQCGKGGKEGAA | 0.653 ± 0.051
PPPPLLSPPSPP | 0.714 ± 0.015
DHIALIWGCSNF | 0.703 ± 0.06
VGPLIGQVGIDT | 0.748 ± 0.014
AKYNISTMTGHT | 0.695 ± 0.024

Sequence | protein stability index
WGTGGGLGVGHV | 0.726 ± 0.093
RRESAGFGLVWG | 0.709 ± 0.017
RPPLLPPLDAPS | 0.713 ± 0.027
KLSTGRGRTGYV | 0.698 ± 0.072
VSLLCFCFGCVL | 0.604 ± 0.022
PPPSAPLPPSPP | 0.6424 ± 0.0043
ALSLPFERVRDT | 0.692 ± 0.022
HTPAPLPPPLHP | 0.691 ± 0.011
PPASLFFPPLSP | 0.756 ± 0.13
PFPPPPTPTLSP | 0.755 ± 0.027
VVVRAGAIFAIP | 0.62 ± 0.045
LFSGPYRYKAYM | 0.7273 ± 0.0061
FVGCVNIFLSWG | 0.51 ± 0.019
CTYAPSGRNSHF | 0.7656 ± 0.0035
CGCVWVSYFFDK | 0.655 ± 0.069
PIELTLQRPPGV | 0.671 ± 0.031
TSSWGGLVASLR | 0.74 ± 0.04
SGAVGSTNYGTR | 0.743 ± 0.018
SGGCGWGAGVRV | 0.778 ± 0.02
PARLQSTLHPRF | 0.634 ± 0.012
STPPLSLRPLLR | 0.608 ± 0.055
AWRGLAPRFVLT | 0.544 ± 0.01
PARQDRPPDHAS | 0.729 ± 0.031
